Measurements: patent US20090202429A1

What was measured:
[1] = molecular target: human platelet glycoprotein Ib alpha (GPIb alpha), on human platelets (human) (UniProt P07359); experiment: cell-based or functional assay
[2] = molecular target: murine platelet glycoprotein Ib alpha (GPIb alpha), on mouse platelets (mouse) (UniProt O35930); experiment: cell-based or functional assay
[3] = molecular target: human platelet glycoprotein Ib alpha (GPIb alpha), on human platelets (human) (UniProt P07359); experiment: human whole blood perfused over surface-bound protein, parallel-plate flow chamber, 1600 s^-1
[4] = molecular target: human platelet integrin alphaIIb beta3, on human platelets (human) (UniProt P08514); experiment: cell-based or functional assay
[5] = molecular target: human platelet glycoprotein Ib alpha (GPIb alpha), on human platelets (human) (UniProt P07359)

Sequence of murine platelet glycoprotein Ib alpha (GPIb alpha), on mouse platelets (mouse) (O35930 17-734): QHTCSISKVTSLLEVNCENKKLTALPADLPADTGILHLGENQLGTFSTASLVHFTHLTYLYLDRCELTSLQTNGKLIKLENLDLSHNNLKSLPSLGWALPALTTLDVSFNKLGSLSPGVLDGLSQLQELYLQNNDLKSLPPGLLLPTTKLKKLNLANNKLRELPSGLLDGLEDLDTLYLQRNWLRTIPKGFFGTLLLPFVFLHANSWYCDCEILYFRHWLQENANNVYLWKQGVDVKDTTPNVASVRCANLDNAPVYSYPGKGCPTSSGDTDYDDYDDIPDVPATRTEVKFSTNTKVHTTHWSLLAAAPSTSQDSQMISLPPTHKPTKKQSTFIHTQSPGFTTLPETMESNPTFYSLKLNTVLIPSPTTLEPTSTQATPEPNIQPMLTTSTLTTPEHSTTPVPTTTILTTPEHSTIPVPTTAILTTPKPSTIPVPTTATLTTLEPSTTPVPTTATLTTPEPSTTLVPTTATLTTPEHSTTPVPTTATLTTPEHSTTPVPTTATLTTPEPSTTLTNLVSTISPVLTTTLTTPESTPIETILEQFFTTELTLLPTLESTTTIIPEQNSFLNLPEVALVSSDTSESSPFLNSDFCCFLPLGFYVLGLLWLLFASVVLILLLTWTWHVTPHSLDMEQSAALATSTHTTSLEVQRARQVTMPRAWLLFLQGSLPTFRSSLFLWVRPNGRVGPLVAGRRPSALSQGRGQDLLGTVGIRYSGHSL
Sequence of human platelet glycoprotein Ib alpha (GPIb alpha), on human platelets (human) (P07359 17-652): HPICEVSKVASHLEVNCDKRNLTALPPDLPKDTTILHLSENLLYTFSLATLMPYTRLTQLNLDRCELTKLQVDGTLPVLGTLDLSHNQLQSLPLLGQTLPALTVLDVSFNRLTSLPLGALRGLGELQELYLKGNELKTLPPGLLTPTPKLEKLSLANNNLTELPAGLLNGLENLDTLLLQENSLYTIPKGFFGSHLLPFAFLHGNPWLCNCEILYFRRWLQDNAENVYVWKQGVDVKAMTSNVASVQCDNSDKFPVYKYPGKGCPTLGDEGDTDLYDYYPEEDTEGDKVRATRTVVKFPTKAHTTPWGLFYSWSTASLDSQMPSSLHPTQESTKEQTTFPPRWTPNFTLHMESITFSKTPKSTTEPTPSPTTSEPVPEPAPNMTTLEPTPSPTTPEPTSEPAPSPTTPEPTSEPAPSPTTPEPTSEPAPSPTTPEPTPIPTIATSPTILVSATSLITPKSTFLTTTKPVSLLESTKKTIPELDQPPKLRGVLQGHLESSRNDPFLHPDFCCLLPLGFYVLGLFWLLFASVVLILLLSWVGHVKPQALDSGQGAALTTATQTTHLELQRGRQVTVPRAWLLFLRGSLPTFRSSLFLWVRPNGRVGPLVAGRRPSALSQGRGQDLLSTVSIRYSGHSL
Sequence of human platelet integrin alphaIIb beta3, on human platelets (human) (P08514 32-1039, chain 1 of 2): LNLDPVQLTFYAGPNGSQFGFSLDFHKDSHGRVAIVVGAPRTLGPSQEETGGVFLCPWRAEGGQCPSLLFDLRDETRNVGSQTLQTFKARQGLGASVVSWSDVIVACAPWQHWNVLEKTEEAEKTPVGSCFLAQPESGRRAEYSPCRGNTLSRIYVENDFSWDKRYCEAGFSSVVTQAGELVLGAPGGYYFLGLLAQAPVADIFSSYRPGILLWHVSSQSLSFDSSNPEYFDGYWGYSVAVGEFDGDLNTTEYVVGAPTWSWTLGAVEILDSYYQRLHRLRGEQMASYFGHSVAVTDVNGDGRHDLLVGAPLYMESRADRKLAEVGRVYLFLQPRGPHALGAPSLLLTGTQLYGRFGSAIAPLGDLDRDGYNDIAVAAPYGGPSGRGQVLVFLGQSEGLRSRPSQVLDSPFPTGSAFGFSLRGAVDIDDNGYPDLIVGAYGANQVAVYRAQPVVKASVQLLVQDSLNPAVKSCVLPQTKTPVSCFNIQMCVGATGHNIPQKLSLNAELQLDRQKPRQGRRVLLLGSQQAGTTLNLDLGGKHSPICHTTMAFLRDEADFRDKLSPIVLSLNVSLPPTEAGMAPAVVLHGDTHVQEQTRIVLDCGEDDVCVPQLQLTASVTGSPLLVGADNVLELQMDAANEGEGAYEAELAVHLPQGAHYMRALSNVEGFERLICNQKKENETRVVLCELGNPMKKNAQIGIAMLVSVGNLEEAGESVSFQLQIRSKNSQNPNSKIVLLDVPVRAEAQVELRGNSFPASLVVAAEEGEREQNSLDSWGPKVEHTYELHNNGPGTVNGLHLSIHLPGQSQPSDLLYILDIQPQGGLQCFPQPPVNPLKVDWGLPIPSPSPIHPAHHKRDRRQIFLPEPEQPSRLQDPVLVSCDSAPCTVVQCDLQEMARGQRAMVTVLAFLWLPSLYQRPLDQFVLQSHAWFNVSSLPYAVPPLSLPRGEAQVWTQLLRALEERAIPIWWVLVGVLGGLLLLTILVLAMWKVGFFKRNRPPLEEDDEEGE
Sequence of human platelet integrin alphaIIb beta3, on human platelets (human) (P05106 27-788, chain 2 of 2, further chain): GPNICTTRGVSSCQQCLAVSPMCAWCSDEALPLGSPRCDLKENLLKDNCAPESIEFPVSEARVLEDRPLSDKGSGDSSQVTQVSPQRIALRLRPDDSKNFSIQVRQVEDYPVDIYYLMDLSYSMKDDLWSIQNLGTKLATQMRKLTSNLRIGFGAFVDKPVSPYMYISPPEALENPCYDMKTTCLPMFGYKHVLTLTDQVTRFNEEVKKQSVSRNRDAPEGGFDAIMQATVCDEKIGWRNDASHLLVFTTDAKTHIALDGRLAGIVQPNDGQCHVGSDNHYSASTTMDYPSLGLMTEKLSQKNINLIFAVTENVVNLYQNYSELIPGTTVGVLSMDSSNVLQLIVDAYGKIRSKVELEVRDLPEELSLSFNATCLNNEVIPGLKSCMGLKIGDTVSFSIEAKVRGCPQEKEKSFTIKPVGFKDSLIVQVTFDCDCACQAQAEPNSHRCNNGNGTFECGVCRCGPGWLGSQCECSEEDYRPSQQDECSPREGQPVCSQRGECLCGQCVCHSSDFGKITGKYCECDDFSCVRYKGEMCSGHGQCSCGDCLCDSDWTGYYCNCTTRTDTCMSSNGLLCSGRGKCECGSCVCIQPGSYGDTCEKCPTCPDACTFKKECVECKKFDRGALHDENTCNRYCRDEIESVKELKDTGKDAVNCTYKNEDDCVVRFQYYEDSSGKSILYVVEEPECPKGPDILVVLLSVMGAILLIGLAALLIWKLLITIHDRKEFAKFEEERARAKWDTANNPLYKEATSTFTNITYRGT

murine plasma VWF with the 1326R>H mutation (from homozygous VWF 1326R>H knock-in mice), Q8CIZ8 764-2813
average thrombus size at laser-injured arterioles of homozygous VWF 1326R>H mice infused with human platelets [1]: 8950 µm^2 | share of human cells in thrombi at laser-injured arterioles of homozygous VWF 1326R>H mice [1]: 91.7% | translocation velocity of human platelets on immobilized plasma VWF [1]: 3.5 µm/sec | thrombi formed on collagen-coated cover slips by whole blood of knock-in animals, 1600 s^-1, reduction against WT [2]: 70% | thrombus formation by whole blood of mutant mice over surface-immobilized collagen in vitro, reduction against WT [2]: 80%

murine plasma VWF, wild type, Q8CIZ8 764-2813
share of human platelets in total thrombus area in WT mice [1]: 5.7% | ristocetin-induced platelet aggregation (RIPA), murine PRP, ristocetin ≧2.5 mg/ml [2]: 30% | platelet deposition, % of same-species control [3]: 10%

function-blocking monoclonal antibody 7E3 (anti-human alphaIIb beta3)
thrombus size in VWF 1326R>H mice after treatment of human platelets with mAb 7E3 [4]: 529 µm^2

function-blocking monoclonal antibody 6D1 (anti-human GPIb alpha)
human platelet accumulation / mm2 on surface-immobilized murine plasma VWF 1326R>H at 1600 s^-1, human blood treated with mAb 6D1 [5]: 0 / mm2 | thrombus size in VWF 1326R>H mice after pre-treatment of human platelets with mAb 6D1 [1]: 265 µm^2
